In patent US20140087995A1 (published 2014):
Numbered stars: 1 amine (or outer) side, 2 acyl side, 3 side chain; on linkers, the order of the positions; unused ones are H or OH. Bridge positions count the residues as written; N and C are the ends. Side chains are listed from the residue outwards. Ends that are not written are not given here. * marks the point of attachment. C20 diacid = O=C(O)CCCCCCCCCCCCCCCCCCC(=O)*; γGlu = O=C(O)[C@H](CCC(=O)[*:2])N[*:1]

T1: human calcitonin receptor (human, UniProt P30988 25-474)
T1 construct: whole, on cells; Membranes of BHK cells stably transfected with the human calcitonin receptor (Assay VII); also called hCTR; hCT
T1 sequence (looked up): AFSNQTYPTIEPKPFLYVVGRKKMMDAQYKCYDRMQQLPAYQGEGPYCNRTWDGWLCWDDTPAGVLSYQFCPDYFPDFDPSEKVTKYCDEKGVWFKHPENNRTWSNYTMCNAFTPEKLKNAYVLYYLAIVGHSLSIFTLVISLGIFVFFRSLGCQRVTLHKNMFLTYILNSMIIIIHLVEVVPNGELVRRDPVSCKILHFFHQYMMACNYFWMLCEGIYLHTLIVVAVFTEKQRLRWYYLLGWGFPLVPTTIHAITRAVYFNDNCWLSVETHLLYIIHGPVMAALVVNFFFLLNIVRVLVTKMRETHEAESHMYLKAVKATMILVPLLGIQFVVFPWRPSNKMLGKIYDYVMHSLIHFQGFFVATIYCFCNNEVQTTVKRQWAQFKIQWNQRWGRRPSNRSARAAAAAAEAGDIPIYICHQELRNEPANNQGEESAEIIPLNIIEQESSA

B1: N^ε1-[(4S)-4-carboxy-4-(19-carboxynonadecanoylamino)butanoyl]-[Glu14,Arg17,Pro21,Pro27,Pro34,Pro37]-h-amylin (peptide)
peptide: K([γGlu-C20 diacid])CNTATCATQRLAEFLRHSSPNFGAIPSSTNVGPNTP-NH2
modifications: disulfide 2-7; N-terminus assumed
SMILES: CC[C@H](C)[C@H](NC(=O)[C@H](C)NC(=O)CNC(=O)[C@H](Cc1ccccc1)NC(=O)[C@H](CC(N)=O)NC(=O)[C@@H]1CCCN1C(=O)[C@H](CO)NC(=O)[C@H](CO)NC(=O)[C@H](Cc1c[nH]cn1)NC(=O)[C@H](CCCNC(=N)N)NC(=O)[C@H](CC(C)C)NC(=O)[C@H](Cc1ccccc1)NC(=O)[C@H](CCC(=O)O)NC(=O)[C@H](C)NC(=O)[C@H](CC(C)C)NC(=O)[C@H](CCCNC(=N)N)NC(=O)[C@H](CCC(N)=O)NC(=O)[C@@H](NC(=O)[C@H](C)NC(=O)[C@@H]1CSSC[C@H](NC(=O)[C@@H](N)CCCCNC(=O)CC[C@H](NC(=O)CCCCCCCCCCCCCCCCCCC(=O)O)C(=O)O)C(=O)N[C@@H](CC(N)=O)C(=O)N[C@@H]([C@@H](C)O)C(=O)N[C@@H](C)C(=O)N[C@@H]([C@@H](C)O)C(=O)N1)[C@@H](C)O)C(=O)N1CCC[C@H]1C(=O)N[C@@H](CO)C(=O)N[C@@H](CO)C(=O)N[C@H](C(=O)N[C@@H](CC(N)=O)C(=O)N[C@H](C(=O)NCC(=O)N1CCC[C@H]1C(=O)N[C@@H](CC(N)=O)C(=O)N[C@H](C(=O)N1CCC[C@H]1C(N)=O)[C@@H](C)O)C(C)C)[C@@H](C)O
B2: N^ε1-[(4S)-4-carboxy-4-(19-carboxynonadecanoylamino)butanoyl]-[His14,Arg17,Pro21,Pro27,Pro31,Pro34]-h-amylin (peptide)
peptide: K([γGlu-C20 diacid])CNTATCATQRLAHFLRHSSPNFGAIPSSTPVGPNTY-NH2
modifications: disulfide 2-7; N-terminus assumed
SMILES: CC[C@H](C)[C@H](NC(=O)[C@H](C)NC(=O)CNC(=O)[C@H](Cc1ccccc1)NC(=O)[C@H](CC(N)=O)NC(=O)[C@@H]1CCCN1C(=O)[C@H](CO)NC(=O)[C@H](CO)NC(=O)[C@H](Cc1c[nH]cn1)NC(=O)[C@H](CCCNC(=N)N)NC(=O)[C@H](CC(C)C)NC(=O)[C@H](Cc1ccccc1)NC(=O)[C@H](Cc1c[nH]cn1)NC(=O)[C@H](C)NC(=O)[C@H](CC(C)C)NC(=O)[C@H](CCCNC(=N)N)NC(=O)[C@H](CCC(N)=O)NC(=O)[C@@H](NC(=O)[C@H](C)NC(=O)[C@@H]1CSSC[C@H](NC(=O)[C@@H](N)CCCCNC(=O)CC[C@H](NC(=O)CCCCCCCCCCCCCCCCCCC(=O)O)C(=O)O)C(=O)N[C@@H](CC(N)=O)C(=O)N[C@@H]([C@@H](C)O)C(=O)N[C@@H](C)C(=O)N[C@@H]([C@@H](C)O)C(=O)N1)[C@@H](C)O)C(=O)N1CCC[C@H]1C(=O)N[C@@H](CO)C(=O)N[C@@H](CO)C(=O)N[C@H](C(=O)N1CCC[C@H]1C(=O)N[C@H](C(=O)NCC(=O)N1CCC[C@H]1C(=O)N[C@@H](CC(N)=O)C(=O)N[C@H](C(=O)N[C@@H](Cc1ccc(O)cc1)C(N)=O)[C@@H](C)O)C(C)C)[C@@H](C)O
B3: N^ε1-[(4S)-4-carboxy-4-(19-carboxynonadecanoylamino)butanoyl]-[His14,Arg17,Pro21,Pro27,Pro34,Pro37]-h-amylin (peptide)
peptide: K([γGlu-C20 diacid])CNTATCATQRLAHFLRHSSPNFGAIPSSTNVGPNTP-NH2
modifications: disulfide 2-7; N-terminus assumed
SMILES: CC[C@H](C)[C@H](NC(=O)[C@H](C)NC(=O)CNC(=O)[C@H](Cc1ccccc1)NC(=O)[C@H](CC(N)=O)NC(=O)[C@@H]1CCCN1C(=O)[C@H](CO)NC(=O)[C@H](CO)NC(=O)[C@H](Cc1c[nH]cn1)NC(=O)[C@H](CCCNC(=N)N)NC(=O)[C@H](CC(C)C)NC(=O)[C@H](Cc1ccccc1)NC(=O)[C@H](Cc1c[nH]cn1)NC(=O)[C@H](C)NC(=O)[C@H](CC(C)C)NC(=O)[C@H](CCCNC(=N)N)NC(=O)[C@H](CCC(N)=O)NC(=O)[C@@H](NC(=O)[C@H](C)NC(=O)[C@@H]1CSSC[C@H](NC(=O)[C@@H](N)CCCCNC(=O)CC[C@H](NC(=O)CCCCCCCCCCCCCCCCCCC(=O)O)C(=O)O)C(=O)N[C@@H](CC(N)=O)C(=O)N[C@@H]([C@@H](C)O)C(=O)N[C@@H](C)C(=O)N[C@@H]([C@@H](C)O)C(=O)N1)[C@@H](C)O)C(=O)N1CCC[C@H]1C(=O)N[C@@H](CO)C(=O)N[C@@H](CO)C(=O)N[C@H](C(=O)N[C@@H](CC(N)=O)C(=O)N[C@H](C(=O)NCC(=O)N1CCC[C@H]1C(=O)N[C@@H](CC(N)=O)C(=O)N[C@H](C(=O)N1CCC[C@H]1C(N)=O)[C@@H](C)O)C(C)C)[C@@H](C)O
B4: N^ε1-[(4S)-4-carboxy-4-[[(4S)-4-carboxy-4-(19-carboxynonadecanoylamino)butanoyl]amino]butanoyl]-[Arg17,Pro21,Pro27,Pro31,Pro34,Arg35]-h-amylin (peptide)
peptide: K([γGlu-γGlu-C20 diacid])CNTATCATQRLANFLRHSSPNFGAIPSSTPVGPRTY-NH2
modifications: disulfide 2-7; N-terminus assumed
SMILES: CC[C@H](C)[C@H](NC(=O)[C@H](C)NC(=O)CNC(=O)[C@H](Cc1ccccc1)NC(=O)[C@H](CC(N)=O)NC(=O)[C@@H]1CCCN1C(=O)[C@H](CO)NC(=O)[C@H](CO)NC(=O)[C@H](Cc1c[nH]cn1)NC(=O)[C@H](CCCNC(=N)N)NC(=O)[C@H](CC(C)C)NC(=O)[C@H](Cc1ccccc1)NC(=O)[C@H](CC(N)=O)NC(=O)[C@H](C)NC(=O)[C@H](CC(C)C)NC(=O)[C@H](CCCNC(=N)N)NC(=O)[C@H](CCC(N)=O)NC(=O)[C@@H](NC(=O)[C@H](C)NC(=O)[C@@H]1CSSC[C@H](NC(=O)[C@@H](N)CCCCNC(=O)CC[C@H](NC(=O)CC[C@H](NC(=O)CCCCCCCCCCCCCCCCCCC(=O)O)C(=O)O)C(=O)O)C(=O)N[C@@H](CC(N)=O)C(=O)N[C@@H]([C@@H](C)O)C(=O)N[C@@H](C)C(=O)N[C@@H]([C@@H](C)O)C(=O)N1)[C@@H](C)O)C(=O)N1CCC[C@H]1C(=O)N[C@@H](CO)C(=O)N[C@@H](CO)C(=O)N[C@H](C(=O)N1CCC[C@H]1C(=O)N[C@H](C(=O)NCC(=O)N1CCC[C@H]1C(=O)N[C@@H](CCCNC(=N)N)C(=O)N[C@H](C(=O)N[C@@H](Cc1ccc(O)cc1)C(N)=O)[C@@H](C)O)C(C)C)[C@@H](C)O
B5: N^ε1-[(4S)-4-carboxy-4-[[(4S)-4-carboxy-4-(19-carboxynonadecanoylamino)butanoyl]amino]butanoyl]-[Glu14,Arg17,Pro21,Pro27,Arg34,Glu35]-h-amylin (peptide)
peptide: K([γGlu-γGlu-C20 diacid])CNTATCATQRLAEFLRHSSPNFGAIPSSTNVGRETY-NH2
modifications: disulfide 2-7; N-terminus assumed
SMILES: CC[C@H](C)[C@H](NC(=O)[C@H](C)NC(=O)CNC(=O)[C@H](Cc1ccccc1)NC(=O)[C@H](CC(N)=O)NC(=O)[C@@H]1CCCN1C(=O)[C@H](CO)NC(=O)[C@H](CO)NC(=O)[C@H](Cc1c[nH]cn1)NC(=O)[C@H](CCCNC(=N)N)NC(=O)[C@H](CC(C)C)NC(=O)[C@H](Cc1ccccc1)NC(=O)[C@H](CCC(=O)O)NC(=O)[C@H](C)NC(=O)[C@H](CC(C)C)NC(=O)[C@H](CCCNC(=N)N)NC(=O)[C@H](CCC(N)=O)NC(=O)[C@@H](NC(=O)[C@H](C)NC(=O)[C@@H]1CSSC[C@H](NC(=O)[C@@H](N)CCCCNC(=O)CC[C@H](NC(=O)CC[C@H](NC(=O)CCCCCCCCCCCCCCCCCCC(=O)O)C(=O)O)C(=O)O)C(=O)N[C@@H](CC(N)=O)C(=O)N[C@@H]([C@@H](C)O)C(=O)N[C@@H](C)C(=O)N[C@@H]([C@@H](C)O)C(=O)N1)[C@@H](C)O)C(=O)N1CCC[C@H]1C(=O)N[C@@H](CO)C(=O)N[C@@H](CO)C(=O)N[C@H](C(=O)N[C@@H](CC(N)=O)C(=O)N[C@H](C(=O)NCC(=O)N[C@@H](CCCNC(=N)N)C(=O)N[C@@H](CCC(=O)O)C(=O)N[C@H](C(=O)N[C@@H](Cc1ccc(O)cc1)C(N)=O)[C@@H](C)O)C(C)C)[C@@H](C)O

The binders below were run against T1, human calcitonin receptor (assay: ratio of IC50 at hCTR over IC50 at hAmylin-R (SPA competition assays)).
In short: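 Scintillation proximity competition binding on cell membranes at 35 ng/μL with SPA beads, in 50 mM Hepes pH 7.4, 1 mM CaCl2, 5 mM MgCl₂, 0.1% OA, 0.02% Tween20. Incubated 120 min at 25° C with shaking. IC₅₀ from one-site competition fit.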
For B1, the “Ratio hCT/hAmylin binding” value was 0.5. In the case of B2, the “Ratio hCT/hAmylin binding” value is reported as 24.8. For B3, the “Ratio hCT/hAmylin binding” value was 1.2. With B4 the “Ratio hCT/hAmylin binding” value was 48.6. For K([γGlu-γGlu-C20 diacid])CNTATCATQRLADFLRHSSPNFGAIPSSTNVGPRTY-NH2 (disulfide 2-7, also called compound 130), the “Ratio hCT/hAmylin binding” value was 280. In the case of K([γGlu-γGlu-C20 diacid])CNTATCATQRLADFLRHSSPNFGAIPSSTNVGPETY-NH2 (disulfide 2-7), the “Ratio hCT/hAmylin binding” value is reported as 49.8. With B5 the “Ratio hCT/hAmylin binding” value was 14.7.

These binders were tested against T1, human calcitonin receptor (assay: SPA competition against 125I-calcitonin, membranes of BHK cells with human calcitonin receptor (Assay VII)).
In short: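 BHK hCTR membranes 35 ng/μL + SPA beads 0.05 mg/well; buffer 50 mM Hepes pH 7.4, 1 mM CaCl2, 5 mM MgCl₂, 0.1% OA, 0.02% Tween20. 120 min, 25° C., shaking. Scintillation count; IC50 by one-site binding competition.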
In the case of B1, the IC50 is reported as 0.117 nM. Binder B2 has an IC50 of 2.04 nM. Work on B3 yielded an IC50 of 0.157 nM. For B4, the IC50 was 42.8 nM. In the case of K([γGlu-γGlu-C20 diacid])CNTATCATQRLADFLRHSSPNFGAIPSSTNVGPRTY-NH2 (disulfide 2-7, also called compound 130), the IC50 is reported as 127 nM. K([γGlu-γGlu-C20 diacid])CNTATCATQRLADFLRHSSPNFGAIPSSTNVGPETY-NH2 (disulfide 2-7) showed an IC50 of 8.56 nM. Work on B5 yielded an IC50 of 14.1 nM.
